Measured values taken from patent US20200347130A1 (JIANGSU HENGRUI MEDICINE, published 2020).

T1: CD96 extracellular region with His tag (CD96-His) (human, UniProt P40200 22-519)
T1 construct: also called CD96-ECD-His; Bio-CD96-His (biotin-labelled form)
T1 sequence: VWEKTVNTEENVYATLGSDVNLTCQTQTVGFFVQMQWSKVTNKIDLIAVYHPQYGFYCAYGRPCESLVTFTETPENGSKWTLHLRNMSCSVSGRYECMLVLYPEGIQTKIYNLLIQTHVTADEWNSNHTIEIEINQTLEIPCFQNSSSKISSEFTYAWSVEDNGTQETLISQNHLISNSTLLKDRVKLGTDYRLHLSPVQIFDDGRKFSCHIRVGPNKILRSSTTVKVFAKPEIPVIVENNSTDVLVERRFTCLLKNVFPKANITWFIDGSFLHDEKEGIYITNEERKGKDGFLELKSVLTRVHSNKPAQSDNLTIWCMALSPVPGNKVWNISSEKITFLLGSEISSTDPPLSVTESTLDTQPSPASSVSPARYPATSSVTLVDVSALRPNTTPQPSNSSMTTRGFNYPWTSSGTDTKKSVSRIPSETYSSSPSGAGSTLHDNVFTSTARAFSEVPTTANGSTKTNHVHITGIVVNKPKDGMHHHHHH

T2: Biotinylated CD96 antigen (human, UniProt P40200-2 22-503, limits assumed, biotinylated)
T2 sequence (looked up): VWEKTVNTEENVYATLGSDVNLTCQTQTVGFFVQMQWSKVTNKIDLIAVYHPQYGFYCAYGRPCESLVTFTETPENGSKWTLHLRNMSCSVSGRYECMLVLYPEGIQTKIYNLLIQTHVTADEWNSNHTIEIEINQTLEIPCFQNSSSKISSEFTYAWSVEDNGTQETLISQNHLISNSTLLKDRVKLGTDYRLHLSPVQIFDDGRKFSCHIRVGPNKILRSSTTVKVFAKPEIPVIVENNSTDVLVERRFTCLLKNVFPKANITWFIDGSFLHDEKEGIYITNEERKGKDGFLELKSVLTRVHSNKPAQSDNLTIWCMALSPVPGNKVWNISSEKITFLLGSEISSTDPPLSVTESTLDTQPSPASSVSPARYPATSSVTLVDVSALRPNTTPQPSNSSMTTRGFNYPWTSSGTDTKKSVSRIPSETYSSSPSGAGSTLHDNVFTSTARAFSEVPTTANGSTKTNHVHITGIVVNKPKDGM


Tests used:
[1] = target: T1, CD96 extracellular region with His tag …; test: blocking cell ELISA: antibody pre-mixed with Bio-CD96-His, added to fixed CD155-CHO cells, HRP-streptavidin, OD450; blocked ligand: human CD155 on CHO cells
Description: CD155-CHO cells (constructed by Shanghai Hengrui) were seeded in 96-well culture plates at a density of 9×10⁴/100 μL/well and cultured overnight. After aspirating the supernatant, the plate was washed once with PBS, 100 μl/well of immunostaining fixation solution (Biyuntian, Cat No. P0098) was added and fixed for one hour at room temperature, and the plate was washed three times with PBS. After discarding the liquid, 250 μl/well of 5% skim milk (BD, Cat No. 232100) blocking solution diluted with PBS was added, and the plate was blocked in an incubator at 37° C. for 2.5 hours. After blocking, the blocking solution was discarded, subsequently, the plate was washed 4 times with PBST buffer (pH 7.4 PBS containing 0.05% tween-20). […] The absorption value was read at 450 nm with a NOVOStar microplate reader, and the EC50 value of the effect of CD96 antibody on blocking the binding between the antigens and CD155-CHO cells was calculated (see FIG. 2 and Table 16).

[2] = target: T2, Biotinylated CD96 antigen; test: competition ELISA: antibody B pre-incubated with biotinylated CD96 antigen, added to a plate coated with antibody A, HRP-streptavidin, OD450; competitor: coated h1718-012
Description: (§1) Competitive assays of different antibodies binding to CD96 protein were used to classify binding epitopes of the antibodies. The specific experimental methods are as follows:
(§2) Antibody A was diluted to a concentration of 2 μg/ml with PBS buffer (Shanghai Yuanpei Biotechnology Co., Ltd. Cat No. B320), pH 7.4, added to a 96-well microtiter plate (Corning, Cat No. CLS3590-100EA) at a volume of 50 μl/well, and coated at 4° C. overnight. After discarding the liquid, 250 μl/well of 5% skim milk (BD skim milk, Cat No. 232100) blocking solution diluted with PBS was added, and the plate was incubated at 37° C. for 3 hours. After blocking, the blocking solution was discarded, and the plate was washed 5 times with PBST buffer (pH 7.4 PBS containing 0.05% tween-20) and stored for later use. Antibody B was diluted to 40 μg/ml and 8 μg/ml with 1% BSA, and Biotinylated CD96 antigen was simultaneously diluted to 4 μg/mL. Subsequently, antibody B and antigen were mixed in a 1:1 volume ratio, pre-incubated at 37° C. for 45 minutes, added into the enzyme plate coated with antibody A, thus incubating the plate in an incubator at 37° C. for 1.5 hours. […] The absorption value was read at 450 nm with a NOVOStar microplate reader, and the OD value was used to determine whether A and B CD96 antibodies compete with each other. […]

[3] = target: T2, Biotinylated CD96 antigen; test: competition ELISA: antibody B pre-incubated with biotinylated CD96 antigen, added to a plate coated with antibody A, HRP-streptavidin, OD450; competitor: coated h1722-010
Description: as §1, §2

IC50 (read off the curve) [1] [nM]	IC50 (read off the curve) [2] [nM]	IC50 (read off the curve) [3] [nM]	Binder
~0.6	~0.6	–	h1719-010 (antibody, V domains shown, Only variable regions are tied to this name) VH: EVTLKESGPVLVKPTETLTLTCTVSGFSLSSYGVSWVRQPPGKGLEWLGVIWGDGNTNYHSVLISRLTISKDTSKSQVVLTLTNMDPVDTATYYCAKQNYYGSRYGYPIDYWGQGTTVTVSS VL: DIQMTQSPSSVSASVGDRVTITCKATQDVGTAVAWYQQKPGKAPKLLIYWASTRHTGVPSRFSGSGSGTDFTLTISSLQPEDFATYYCQQYGSSVLTFGGGTKVEIK
–	–	~0.5	h1722-010 (antibody, V domains shown, Only variable regions are tied to this name; also called M722-010) VH: EVQLVQSGAEVKKPGSSVKVSCKASGGTFSDYWMHWVRQAPGQGLEWIGMLHPNSGTTSFNEKFKIRVTITADKSTSTAYMELSSLRSEDTAVYYCASDYSGPFAYWGQGTLVTVSS VL: DIQLTQSPSSLSASVGDRVTITCSASSSVNYIHWYQQKPGKAPKRWIFDTSKLASGVPSRFSGSGSGTDYTLTISSLQPEDFATYYCQQWRSNPLTFGQGTKLEIK
